The target of one series is T1, GST-BEE2 (Arabidopsis thaliana, UniProt Q93VJ4 1-304).
T1 sequence: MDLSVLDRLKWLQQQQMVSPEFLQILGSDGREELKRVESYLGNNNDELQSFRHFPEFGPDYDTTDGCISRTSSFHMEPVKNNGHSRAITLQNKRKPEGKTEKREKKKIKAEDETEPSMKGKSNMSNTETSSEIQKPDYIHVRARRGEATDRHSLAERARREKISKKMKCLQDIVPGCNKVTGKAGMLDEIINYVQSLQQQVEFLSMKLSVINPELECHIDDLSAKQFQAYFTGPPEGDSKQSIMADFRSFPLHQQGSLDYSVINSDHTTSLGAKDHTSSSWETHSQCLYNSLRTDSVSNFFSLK
The series can be described thus: EMSA; 1000x cold probe eliminated the shift; 10 mM Tris pH 7.5, 50 mM KCl, 5 mM MgCl2, 1 mM DTT, 2.5% glycerol, 0.5% NP-40, 50 ng poly(dI-dC), 25 fmol probe in 20 ul, room temperature, 45 min; 6% native PAGE. The settings on record: protein: recombinant; tags: GST (N-term, pGEX4T1); chain copies: 2; label: 5' biotin; blunt. A general note: A gel shift assay detects complexes by their altered migration in electrophoresis.

A further series concerns the target T2, GST-HBI1 (Arabidopsis thaliana, UniProt Q9ZPW3 1-337).
T2 sequence: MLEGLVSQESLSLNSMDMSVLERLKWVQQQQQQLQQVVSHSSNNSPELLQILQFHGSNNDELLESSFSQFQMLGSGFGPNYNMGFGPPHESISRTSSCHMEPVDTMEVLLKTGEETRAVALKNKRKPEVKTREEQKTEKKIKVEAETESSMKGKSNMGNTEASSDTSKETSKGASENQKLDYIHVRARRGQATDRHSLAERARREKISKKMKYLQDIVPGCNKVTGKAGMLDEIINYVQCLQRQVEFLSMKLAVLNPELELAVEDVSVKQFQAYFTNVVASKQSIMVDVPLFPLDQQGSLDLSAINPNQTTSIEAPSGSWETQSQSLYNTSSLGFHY
The series is described as above. The settings on record: protein: recombinant; tags: GST (N-term, pGEX4T1); chain copies: 2; label: 5' biotin; blunt.

Data on two molecules can be found in publication PMC8219041, “A transcriptional hub integrating gibberellin–brassinosteroid signals to promote seed germination in Arabidopsis”.

B1: GASA6 promoter Probe 1 (dsDNA)
DNA 1: CAATTTTTAATCACAAATGCTATTTTATTGGACGACC
DNA 2: GGTCGTCCAATAAAATAGCATTTGTGATTAAAAATTG
Turning to B1, the binding result in the series with GST-BEE2 and with GST-HBI1 was “binds” each time.

B2: GASA6 promoter Probe 2 (dsDNA)
DNA 1: GTCTCCCATGTGAGTGCACATGGAGTTATG
DNA 2: CATAACTCCATGTGCACTCACATGGGAGAC
With B2, the binding result with GST-BEE2 and with GST-HBI1 was “binds” throughout.
